Experimental data published in US20210371487A1.
Read-outs that look alike come from different tables or passages of the source. Blank lines part the entries; values can stand above or below the molecule they belong to.

Assays:
Factor X [1] = molecular target: Factor X (UniProt P00742); experiment: cell-based or functional assay
Factor X [2] = molecular target: Factor X (UniProt P00742); experiment: cell-based or functional assay; remark: listed apart in the source
Factor X [3] = molecular target: Factor X (UniProt P00742)

Factor X, P00742, sequence (P00742 whole entry, looked up): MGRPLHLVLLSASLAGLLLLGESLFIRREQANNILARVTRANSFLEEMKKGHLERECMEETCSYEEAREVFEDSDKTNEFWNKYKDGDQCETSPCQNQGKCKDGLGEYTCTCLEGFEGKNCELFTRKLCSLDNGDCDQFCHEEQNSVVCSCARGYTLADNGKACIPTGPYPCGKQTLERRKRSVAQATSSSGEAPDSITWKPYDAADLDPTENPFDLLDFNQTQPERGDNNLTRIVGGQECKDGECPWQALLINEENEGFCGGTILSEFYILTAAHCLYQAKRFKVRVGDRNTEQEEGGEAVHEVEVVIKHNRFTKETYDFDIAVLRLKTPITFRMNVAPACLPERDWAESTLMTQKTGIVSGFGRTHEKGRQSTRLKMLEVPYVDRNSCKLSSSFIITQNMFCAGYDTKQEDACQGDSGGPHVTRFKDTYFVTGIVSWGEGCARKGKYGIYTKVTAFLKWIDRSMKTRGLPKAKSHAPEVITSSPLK

Sample/plasma EC50 ratio (FIX chromogenic activity, BIOPHEN kit) (Factor X [1]): 5.35
Molecule: FIX-CTP4 (enzyme)

Sample/plasma EC50 ratio (FIX chromogenic activity, BIOPHEN kit) (Factor X [1]): 2.73
Molecule: FIX-CTP5 (enzyme)

EC50, FIX chromogenic activity (BIOPHEN kit) (Factor X [1]): 0.021 µg/mL
EC50, FIX chromogenic activity (BIOPHEN kit) (Factor X [2]): 0.0687 µg/mL
Molecule: rhFIX (American Diagnostics) (from UniProt P00740 47-461) (enzyme)

Molecule: FIX-CTP-CTP
fold decrease in the enzymatic activity (chromogenic assay) (Factor X [3]): An approximately 15-fold decrease in the enzymatic activity of the FIX-(CTP)2 harvest was observed.
fold decrease in the enzymatic activity versus normal human pulled plasma (chromogenic assay) (Factor X [3]): a 16.5-fold decrease versus normal human pulled plasma
fold decrease in the enzymatic activity vs. recombinant FIX (chromogenic assay) (Factor X [3]): An approximately 7-fold decrease in the enzymatic activity of FIX-CTP-CTP was observed vs. recombinant FIX

EC50, FIX chromogenic activity (BIOPHEN kit) (Factor X [1]): 0.382 µg/mL
EC50, FIX chromogenic activity (BIOPHEN kit) (Factor X [2]): 0.505 µg/mL
Molecule: FIX-CTP-CTP (enzyme)

EC50, FIX chromogenic activity (BIOPHEN kit) (Factor X [1]): 1.64 µg/mL
Molecule: FIX-CTP (from UniProt P00740 47-461) (enzyme)

Sample/plasma EC50 ratio (FIX chromogenic activity, BIOPHEN kit) (Factor X [1]): 2
Molecule: FIX-CTP3 (enzyme)

B1: rFVII-CTP (protein)
chain: AVFVTQEEAHGVLHRRRRANAFLEELRPGSLERECKEEQCSFEEAREIFKDAERTKLFWISYSDGDQCASSPCQNGGSCKDQLQSYICFCLPAFEGRNCETHKDDQLICVNENGGCEQYCSDHTGTKRSCRCHEGYSLLADGVSCTPTVEYPCGKIPILEKRNASKPQGRIVGGKVCPKGECPWQVLLLVNGAQLCGGTLINTIWVVSAAHCFDKIKNWRNLIAVLGEHDLSEHDGDEQSRRVAQVIIPSTYVPGTTNHDIALLRLHQPVVLTDHVVPLCLPERTFSERTLAFVRFSLVSGWGQLLDRGATALELMVLNVPRLMTQDCLQQSRKVGDSPNITEYMFCAGYSDGSKDSCKGDSGGPHATHYRGTWYLTGIVSWGQGCATVGHFGVYTRVSQYIEWLQKLMRSEPRPGVLLRAPFPSSSSKAPPPSLPSPSRLPGPSDTPILPQ
FVII chromogenic activity (AssaySense Human FVII Chromogenic Activity Assay Kit) (Factor X, P00742): The addition of the CTP peptide at the C-terminal of the rFVII protein did not impair the FVII serine protease activity
